# According to patent US20230056252A1 (Gilead, published 2023):
# Substitutions are numbered along the chain they refer to.
# B1: hPGT121.66 AAS + W/huSP34.34.10 scFv AAS + SAV + R (bispecific antibody, human IgG1, lambda, L234A L235A)
# chain: EVQLVESGGGLVQPGGSLRLSCAASGFTFNTYAMNWVRQAPGKGLEWVGRIRSKYNNYATYYAASVKGRFTISRDDSKNSLYLQMNSLKTEDTAMYYCVRHGNFGHSYVSWFAYWGQGTLVTVSSGGGGSGGGGSGGGGSGGGGSQAVVTQPPSLTVSPGGTVTLTCGSSTGAVTTGHYANWVQQKPGQAPRGLIGGTNKRAPGVPARFSGSLSGGKAALTISGAQPEDEAEYYCALWYSNRWVFGGGTKLTVLEPKSSDKTHTCPPCPAPEAAGGPSVFLFPPKPKDTLMISRTPEVTCVVVDVSHEDPEVKFNWYVDGVEVHNAKTKPREEQYNSTYRVVSVLTVLHQDWLNGKEYKCKVSNKALPASIEKTISKAKGQPREPQVYTLPPSREEMTKNQVSLSCAVKGFYPSDIAVEWESNGQPENNYKTTPPVLDSDGSFFLVSKLTVDKSRWQQGNVFSCSVMHEALHNRYTQKSLSLSPGK
# heavy: QMQLQESGPGLVKPSETLSLTCSVSGASISDSYWSWIRRSPGKGLEWIGYVHKSGDTNYNPSLKSRVHLSLDTSKNQVSLSLTGVTAADSGKYYCARTLHGRRIYGIVAFNEWFTYFYMDVWGTGTQVTVSSASTKGPSVFPLAPSSKSTSGGTAALGCLVKDYFPEPVTVSWNSGALTSGVHTFPAVLQSSGLYSLSSVVTVPSSSLGTQTYICNVNHKPSNTKVDKKVEPKSCDKTHTCPPCPAPEAAGGPSVFLFPPKPKDTLMISRTPEVTCVVVDVSHEDPEVKFNWYVDGVEVHNAKTKPREEQYNSTYRVVSVLTVLHQDWLNGKEYKCKVSNKALPASIEKTISKAKGQPREPQVYTLPPSREEMTKNQVSLWCLVKGFYPSDIAVEWESNGQPENNYKTTPPVLDSDGSFFLYSKLTVDKSRWQQGNVFSCSVMHEALHNHYTQKSLSLSPGK
# light: not shown
# B2: huSP34.3.9 Fab-HF (Fab, V domains shown)
# VH: EVQLVESGGGLVQPGGSLRLSCAASGFTFNTYAMNWVRQAPGKGLEWVGRIRSKYNNYATYYADSVKGRFTISRDDSKNSLYLQMNSLRTEDTAVYYCVRHGNFGHSYVSWFAYWGQGTLVTVSS
# VL: QAVVTQPPSLTVSPGGTVTLTCGSSTGAVTTGHYANWVQQKPGQAPRGLIGGTNKRAPGVPARFSGSLSGGKAALTISGAQPEDEAEYYCALWYSNLWVFGGGTKLTVL
# B3: huSP34.11.8 Fab-HF (Fab, V domains shown)
# VH: B2 VH with N30S, D64A
# VL: B2 VL with P7E, S69L, L97R
# B4: huSP34.3.8 Fab-HF (Fab, V domains shown)
# VH: B2 VH
# VL: B2 VL with P7E, S69L, L97R
# B5: huSP34.11.7 Fab-HF (Fab, V domains shown)
# VH: B2 VH with N30S, D64A
# VL: B2 VL with P7E, G23R, S69L
# B6: huSP34.3.10 Fab-HF (Fab, V domains shown)
# VH: B2 VH
# VL: B2 VL with L97R
# B7: huSP34.3.7 Fab-HF (Fab, V domains shown)
# VH: B2 VH
# VL: B2 VL with P7E, G23R, S69L
# B8: huSP34.2.4 Fab-HF (Fab, V domains shown)
# VH: B2 VH with N30S, D64A, R89K, V95M, H106N, Y114V
# VL: B2 VL with P7E, G32S, N54S, G59W, V60T, S69L, I77L, N96A
# B9: huSP34.5.6 Fab-HF (Fab, V domains shown)
# VH: B2 VH with N30S, D76N, S80T, T90A, Y114V
# VL: B2 VL with N54S, K55N, N96A, L97R
# B10: huSP34.5.2 Fab-HF (Fab, V domains shown)
# VH: B2 VH with N30S, D76N, S80T, T90A, Y114V
# VL: B2 VL with P7E, G32S, H33N, N54S, K55N, G59W, V60T, S69L, I77L
# B11: huSP34.4.4 Fab-HF (Fab, V domains shown)
# VH: B2 VH with N30S, D64A, Y114V
# VL: B2 VL with P7E, G32S, N54S, G59W, V60T, S69L, I77L, N96A
# B12: huSP34.5.4 Fab-HF (Fab, V domains shown)
# VH: B2 VH with N30S, D76N, S80T, T90A, Y114V
# VL: B2 VL with P7E, G32S, N54S, G59W, V60T, S69L, I77L, N96A
# B13: huSP34.5.5 Fab-HF (Fab, V domains shown)
# VH: B2 VH with N30S, D76N, S80T, T90A, Y114V
# VL: B2 VL with P7E, N54S, K55N, G59W, V60T, S69L, I77L, N96A, L97R
# B14: huSP34.4.5 Fab-HF (Fab, V domains shown)
# VH: B2 VH with N30S, D64A, Y114V
# VL: B2 VL with P7E, N54S, K55N, G59W, V60T, S69L, I77L, N96A, L97R
# B15: huSP34.5.1 Fab-HF (Fab, V domains shown)
# VH: B2 VH with N30S, D76N, S80T, T90A, Y114V
# VL: B2 VL with P7E, G23R, G32S, H33N, G59W, V60T, S69I, G71D, I77L
# B16: huSP34.2.5 Fab-HF (Fab, V domains shown)
# VH: B2 VH with N30S, D64A, R89K, V95M, H106N, Y114V
# VL: B2 VL with P7E, N54S, K55N, G59W, V60T, S69L, I77L, N96A, L97R
# B17: hPGT121.66 AAS + W/huSP34.14.8scFv AAS + SAV + R (bispecific antibody, human IgG1, lambda, L234A L235A)
# chain: B1 chain with R19S, N30S, S80T, K89R, M95V, P152E, S214L
# heavy: B1 heavy
# light: not shown
# B18: hPGT121.66 AAS + W/huSP34.25.8scFv AAS + SAV + R (bispecific antibody, human IgG1, lambda, L234A L235A)
# chain: B1 chain with N30S, T60A, G68S, S80T, K89R, M95V, P152E, S214L
# heavy: B1 heavy
# light: not shown
# B19: hPGT121.66 AAS + W/huSP34.28.8 scFv AAS + SAV + R (bispecific antibody, human IgG1, lambda, L234A L235A)
# chain: B1 chain with R19S, N30S, G68S, S80T, K89R, M95V, P152E, S214L
# heavy: B1 heavy
# light: not shown
# notes: also called 271; bispecific 271
# B20: hPGT121.66 AAS + W/huSP34.27.8 scFv AAS + SAV + R (bispecific antibody, human IgG1, lambda, L234A L235A)
# chain: B1 chain with R19S, N30S, T60E, S80T, K89R, M95V, P152E, S214L
# heavy: B1 heavy
# light: not shown
# notes: also called 270; bispecific 270
# B21: hPGT121.66 AAS + W/huSP34.19.8scFv AAS + SAV + R (bispecific antibody, human IgG1, lambda, L234A L235A)
# chain: B1 chain with N30S, S80T, Q84E, K89R, M95V, P152E, S214L
# heavy: B1 heavy
# light: not shown
# B22: hPGT121.66 AAS + W/huSP34.33.8 scFv AAS + SAV + R (bispecific antibody, human IgG1, lambda, L234A L235A)
# chain: B1 chain with N30S, G68S, S80T, Q84E, K89R, M95V, P152E, S214L
# heavy: B1 heavy
# light: not shown
# B23: hPGT121.66 AAS + W/huSP34.26.8scFv AAS + SAV + R (bispecific antibody, human IgG1, lambda, L234A L235A)
# chain: B1 chain with R19S, N30S, T60A, S80T, K89R, M95V, P152E, S214L
# heavy: B1 heavy
# light: not shown
# Molecular target: T1, biotinylated Human CD3E and CD3D (Acro Biosystems Cat CDD-H82W1) (human, UniProt P07766 23-126; P04234 22-105)
# T1 construct: also called biotinylated CD3
# Assay: SPR (Biacore 4000), CD3 captured on streptavidin chip;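 further: bispecific antibodies or Fabs injected at several concentrations over CD3 surfaces of varying density, sensorgrams fitted with a simple kinetic model to obtain association, dissociation and equilibrium constants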
# Procedure: This model was used to derive kₒₙ, koff. and KD for these interactions.
# To determine the CD3 binding kinetics of selected Fabs or bispecific antibodies, we next conducted surface plasmon resonance biosensor studies. Experiments were performed on a Biacore 4000 instrument. Streptavidin was chemically immobilized on a C1 chip. Biotinylated CD3 (Acro Biosystems, biotinylated Human CD3E and CD3D Cat CDD-H82W1, lot BVG51-93TF1-NY) was captured at various densities. Various bispecific fusions proteins containing huSP34 anti-CD3 scFv or Fab domains were then injected at various concentrations over the CD3 surfaces. Kinetic data was then fit to a simple kinetic model yielding rate constants kₒₙ and koff for the association and dissociation phases, and the equilibrium dissociation constant, KD. […] Data was fit to a simple kinetic model.
Binder,Kd,koff,kon
B1,3.9 nM,0.0102 s⁻¹,2.6e+06 M⁻¹ s⁻¹

# Molecular target: T2, CD3 expressed on cell-surface of primary human T cells (human, UniProt P07766 23-207; P04234 22-171)
# T2 construct: also called cell-surface CD3; human CD3
# Assay: flow cytometry competition vs murine SP34-AF488 on human T cells, average
# Procedure: (§1) Binding of humanized SP34 Fab variants to CD3 expressed on cell-surface of primary human T cells was evaluated in a flow cytometry-based competition assay.
# (§2) A second round of huSP34 Fab variants were characterized using the same flow cytometry-based competition assay as described above.
row,Binder,IC50
1,B2,0.28 µg/mL
2,B3,0.22 µg/mL
3,B4,0.15 µg/mL
4,B5,0.32 µg/mL
5,B6,0.15 µg/mL
6,B7,0.23 µg/mL

# Molecular target: T2, CD3 expressed on cell-surface of …
# Assay: flow cytometry competition vs murine SP34-AF488 on human T cells, n = 1
# Procedure: as §1
row,Binder,IC50
1,B8,> 20 µg/mL
2,B9,> 20 µg/mL
3,B10,> 20 µg/mL
4,B11,> 20 µg/mL
5,B12,> 20 µg/mL
6,B13,> 20 µg/mL
7,B14,> 20 µg/mL
8,B15,> 20 µg/mL
9,B16,> 20 µg/mL

# Molecular target: T3, biotinylated CD3 epsilon:delta heterodimer protein (Amsbio AMS.CDD-H52WO) (Homo sapiens (Human), UniProt P07766 23-126; P04234 22-105)
# T3 construct: also called CD3 heterodimer
# Assay: BLI (Octet), CD3 on SA sensor, bispecific analyte
# Procedure: (§3) The CD3 binding kinetics of the purified huSP34 Fabs were determined using OctetRed384 (Pall ForteBio, CA) biolayer interferometry (BLI). […] Streptavidin (SA) coated biosensors tips (Pall ForteBio, CA) were used to capture biotinylated CD3 epsilon: delta heterodimer and typical immobilization levels captured on the SA sensors were 1 nm which approximately translates to 300 ng/ml of captured protein. For kinetic measurements biosensors were first pre-wetted with assay buffer for 10 minutes to remove protective sucrose coating followed by the recommended regeneration conditions for standardization of the biosensor surface for the experiment. In order to load the biosensors with antigen, 300 ng/ml of biotinylated CD3 epsilon: delta heterodimer protein (Amsbio AMS.CDD-H52WO) was immobilized on the SA sensor for 900 seconds. The CD3 loaded biosensors were then blocked with 20 ug/ml biocytin (sigma) for 200 seconds and then dipped into assay buffer containing wells for 200 seconds to remove any non-specific protein or unbound CD3 heterodimer.
# (§4) CD3 loaded and biocytin blocked biosensors were then transferred into fresh assay buffer for 200 seconds to collect a baseline read. Kinetic measurements for anti-CD3 Fab and bispecific antibody binding were performed by dipping the CD3-coated biosensors into wells containing multiple concentrations of Fab or Ab (0-300 nM) for 100 seconds followed by a 300 second dissociation time by transferring the biosensors into assay buffer containing wells. The CD3 loaded sensors were then regenerated for the next kinetic measurement. Biosensors were generated by removing bound Fabs or Ab from immobilized CD3 on SA biosensors. Regeneration conditions used consisted of 3 cycles of 5 seconds of dipping the biosensors in Regeneration Buffer (10 mM Glycine HCl pH 1.5) followed by Assay Buffer (10 mM sodium phosphate pH 7.4, 140 mM Sodium Chloride, 0.005% Tween20 with 0.2% BSA).
Binder,Kd,koff,kon
B1,8.4 nM,0.00083 s⁻¹,120000 M⁻¹ s⁻¹

# Molecular target: T2, CD3 expressed on cell-surface of …
# Assay: flow cytometry competition vs murine SP34-AF488 on human T cells, n = 2
# Procedure: as §1
row,Binder,IC50
1,B8,> 20 µg/mL
2,B9,> 20 µg/mL
3,B10,> 20 µg/mL
4,B11,> 20 µg/mL
5,B12,> 20 µg/mL
6,B13,> 20 µg/mL
7,B14,> 20 µg/mL
8,B15,> 20 µg/mL
9,B16,> 20 µg/mL

# Molecular target: T3, biotinylated CD3 epsilon:delta …
# Assay: BLI (Octet), CD3 on SA sensor, bispecific analyte
# Remark: another data set of the same source
# Procedure: as §3, §4
Binder,Kd,koff,kon
B17,24.3 nM,0.000932 s⁻¹,39000 M⁻¹ s⁻¹
B18,10.6 nM,0.000928 s⁻¹,87600 M⁻¹ s⁻¹
B19,15.8 nM,0.00134 s⁻¹,84600 M⁻¹ s⁻¹
B20,13.2 nM,0.001 s⁻¹,76300 M⁻¹ s⁻¹
B21,14.7 nM,0.00104 s⁻¹,72200 M⁻¹ s⁻¹
B22,15.3 nM,0.00118 s⁻¹,77400 M⁻¹ s⁻¹
B23,9.3 nM,0.000504 s⁻¹,55900 M⁻¹ s⁻¹

# Molecular target: T2, CD3 expressed on cell-surface of …
# Assay: flow cytometry competition vs murine SP34-AF488 on human T cells, n = 2
# Remark: another data set of the same source
# Procedure: as §1, §2
row,Binder,IC50
1,B2,0.17 µg/mL
2,B3,0.13 µg/mL
3,B4,0.1 µg/mL
4,B5,0.18 µg/mL
5,B6,0.09 µg/mL
6,B7,0.15 µg/mL

# Molecular target: T2, CD3 expressed on cell-surface of …
# Assay: flow cytometry competition vs murine SP34-AF488 on human T cells, n = 1
# Remark: another data set of the same source
# Procedure: as §1, §2
row,Binder,IC50
1,B2,0.39 µg/mL
2,B3,0.3 µg/mL
3,B4,0.2 µg/mL
4,B5,0.45 µg/mL
5,B6,0.2 µg/mL
6,B7,0.3 µg/mL
